Measured values as given in patent US20110312897.

Test system: C-terminally 6xHIS tagged, full-length recombinant histone H3

| Substance | H3 cleavage assay with pre-activated enzyme, immunoblot with HIS and H3.cs1 antibodies |
| --- | --- |
| recombinant Cathepsin B (R&D Systems Cat No. BAF965) | Cathepsin B cleaves rH3 with a distinct pattern from Cathepsins K or L and does not significantly produce the H3.cs1 epitope |
| recombinant Cathepsin K (Calbiochem Cat. No. 342001) | Cathepsin K produces a similar pattern to Cathepsin L under these assay conditions |
